Data: patent US20210214460A1 (AstraZeneca / MedImmune, published 2021)
Read-outs that look alike come from different tables or passages of the source.

Key:
[1] = target: soluble BCMA (sBCMA) in conditioned media collected from Ad293 cells expressing human BCMA (human) (UniProt Q02223); assay: cell-based or functional assay
[2] = target: T1, membrane-bound human BCMA (human, UniProt Q02223 1-184); assay: cell-based or functional assay
T1 sequence (looked up): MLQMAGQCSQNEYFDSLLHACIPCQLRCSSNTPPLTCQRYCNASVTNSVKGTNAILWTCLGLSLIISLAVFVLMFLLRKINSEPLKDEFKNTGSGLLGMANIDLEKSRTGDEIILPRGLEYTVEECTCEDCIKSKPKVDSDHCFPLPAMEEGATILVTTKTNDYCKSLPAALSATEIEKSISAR

[3] = target: T1, membrane-bound human BCMA; assay: flow cytometry on MM.1S cells (endogenous BCMA), printed as apparent affinity
Procedure: (§1) Binding of 15B2GL, I09, L15, and J6M0 to membrane-bound human BCMA was evaluated using flow cytometry in multiple myeloma and plasma cell leukemia cell lines that endogenously express BCMA (NCI-H929 and MM.1S, respectively). Binding of 15B2GL, 109, L15 to membrane-bound human BCMA was also evaluated in Ad293 cells expressing human BCMA. Binding assays were performed by incubating the anti-BCMA antibodies with 200,000 cells for 30 minutes at 4° C. followed by two washes with PBS+2% FBS (FACS Buffer). A range of antibody concentrations were evaluated using a 12-point, 3-fold dilution series. Cells were then incubated with 5 ug/mL goat-anti human IgG-AF647 secondary antibodies (Thermo Fisher Scientific, Waltham, Mass.) at 4° C., followed by two washes in PBS+2% FBS. Cells were resuspended in 200 uL PBS+2% FBS+DAPI.
(§2) Fluorescence of live, single cells was measured using a BD Biosciences LSRII cytometer and BD FACSDiva™ software (BD Biosciences, San Jose, Calif.). Data were analyzed using FlowJo™ software (FlowJo, LLC, Ashland, Oreg.). Mean fluorescence intensity values were used to determine percentage bound and EC50 was determined using Prism™ software (GraphPad Software Inc, La Jolla, Calif.).

[4] = target: T2, monomeric human sBCMA (GenScript) (human, UniProt Q02223 1-54); assay: SPR (ProteOn XPR36), antibody captured by anti-Fc, sBCMA 100-6.25 nM as analyte
T2 construct: extracellular domain; also called monomeric BCMA; monomeric (soluble) BCMA
T2 sequence (looked up): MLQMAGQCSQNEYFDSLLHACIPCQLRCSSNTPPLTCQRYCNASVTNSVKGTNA
Procedure: The binding of 15B2GL monoclonal antibody and optimized clones I09, L15, P10, N22, and M02 (described in Example 1) was assessed using monomeric human sBCMA (GenScript, Piscataway, N.J.) using a ProteOn™ XPR36 instrument (Bio-Rad, Hercules, Calif.). The binding of J6M0 also was assessed for comparison. Standard amine coupling was used to immobilize 25 μg/ml anti-Fc polyclonal antibody (Jackson ImmunoResearch, West Grove, Pa.) prepared in 10 mM sodium acetate buffer (pH 4.5) to the surface of a ProteOn™ GLC biosensor chip (Bio-Rad, Hercules, Calif.) pre-activated with 20 mM EDAC (1-ethyl-3-(3-dimethylaminopropyl)carbodiimide hydrochloride) and 5 mM Sulfo-NHS (N-hydroxysulfosuccinimide) at a density of ˜200-600 resonance units (RU). 15B2GL, I09, L15, P10, N22, M02, and J6M0 were subsequently injected at a concentration of 1 μg/ml for capture by the immobilized anti-Fc polyclonal antibody. The sensorgram was recorded by flowing two-fold serial dilutions of sBCMA prepared in PBS (pH 7.4) with 0.005% (v/v) Tween®-20, ranging from 100-6.25 nM, over the captured surface for 150 seconds at 75 μL/minute with dissociation time of 600 seconds. ProteOn™ data analysis software was used to analyze the data.

[5] = target: T1, membrane-bound human BCMA; assay: flow cytometry on NCI-H929 cells (endogenous BCMA), printed as apparent affinity
Procedure: as §1, §2

[6] = target: T3, soluble BCMA (sBCMA) in conditioned media collected from Ad293 cells expressing human BCMA (human, UniProt Q02223 1-54); assay: cell-based or functional assay
T3 sequence (looked up): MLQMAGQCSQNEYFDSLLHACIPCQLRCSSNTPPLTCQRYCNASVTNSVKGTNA

[7] = target: T1, membrane-bound human BCMA; assay: cell-based or functional assay; remark: listed apart in the source
[8] = target: T1, membrane-bound human BCMA; assay: cell-based or functional assay; remark: listed apart in the source

B1: J6M0-SG3249 antibody-drug conjugate (antibody, INN chains, looked up, V domains shown)
VH: QVQLVQSGAEVKKPGSSVKVSCKASGGTFSNYWMHWVRQAPGQGLEWMGATYRGHSDTYYNQKFKGRVTITADKSTSTAYMELSSLRSEDTAVYYCARGAIYDGYDVLDNWGQGTLVTVSS
VL: DIQMTQSPSSLSASVGDRVTITCSASQDISNYLNWYQQKPGKAPKLLIYYTSNLHSGVPSRFSGSGSGTDFTLTISSLQPEDFATYYCQQYRKLPWTFGQGTKLEIK
modifications: SG3249 (tesirine) drug payload
What does the source list for B1?
Fold loss of potency, killing of MM.1S cells with 0 ng/mL sBCMA (reference) [1]: 1 fold; Fold loss of potency, killing of MM.1S cells with 75 ng/mL sBCMA [1]: 2.66 fold; Fold loss of potency, killing of MM.1S cells with 270 ng/mL sBCMA [1]: 6.7 fold; Fold loss of potency, killing of MM.1S cells with 720 ng/mL sBCMA [1]: 19.3 fold; IC50 (ng/mL) of killing of MM.1S cells with 0 ng/mL sBCMA [2]: 4.82 ng/mL; IC50 (ng/mL) of killing of MM.1S cells with 75 ng/mL sBCMA [2]: 12.8 ng/mL; IC50 (ng/mL) of killing of MM.1S cells with 270 ng/mL sBCMA [2]: 32.3 ng/mL; IC50 (ng/mL) of killing of MM.1S cells with 720 ng/mL sBCMA [2]: 92.9 ng/mL

B2: anti-BCMA antibody J6M0 (antibody, V domains shown)
VH: QVQLVQSGAEVKKPGSSVKVSCKASGGTFSNYWMHWVRQAPGQGLEWMGATYRGHSDTYYNQKFKGRVTITADKSTSTAYMELSSLRSEDTAVYYCARGAIYDGYDVLDNWGQGTLVTVSS
VL: DIQMTQSPSSLSASVGDRVTITCSASQDISNYLNWYQQKPGKAPKLLIYYTSNLHSGVPSRFSGSGSGTDFTLTISSLQPEDFATYYCQQYRKLPWTFGQGTKLEIK
Which EC50 [3] does the source give for B2 here?
Its EC50 is 6.65 nM.

What about the Kd [4] of the same binder?
Its Kd is 1 nM.

What about the EC50 [5] of the same binder?
Its EC50 is 6.02 nM.

B3: J6M0-mc-MMAF antibody-drug conjugate (antibody, INN chains, looked up, V domains shown)
VH: QVQLVQSGAEVKKPGSSVKVSCKASGGTFSNYWMHWVRQAPGQGLEWMGATYRGHSDTYYNQKFKGRVTITADKSTSTAYMELSSLRSEDTAVYYCARGAIYDGYDVLDNWGQGTLVTVSS
VL: DIQMTQSPSSLSASVGDRVTITCSASQDISNYLNWYQQKPGKAPKLLIYYTSNLHSGVPSRFSGSGSGTDFTLTISSLQPEDFATYYCQQYRKLPWTFGQGTKLEIK
modifications: mc-MMAF drug payload
For B3, which Fold loss of potency, killing of MM.1S cells with 0 ng/mL sBCMA (reference) [1] is on record?
The Fold loss of potency, killing of MM.1S cells with 0 ng/mL sBCMA (reference) was 1 fold.

And the Fold loss of potency, killing of MM.1S cells with 75 ng/mL sBCMA [1]?
Its Fold loss of potency, killing of MM.1S cells with 75 ng/mL sBCMA is 1.9 fold.

And the Fold loss of potency, killing of MM.1S cells with 270 ng/mL sBCMA [1]?
Its Fold loss of potency, killing of MM.1S cells with 270 ng/mL sBCMA is 5.45 fold.

What about the Fold loss of potency, killing of MM.1S cells with 720 ng/mL sBCMA [1] of the same binder?
The Fold loss of potency, killing of MM.1S cells with 720 ng/mL sBCMA was 49.8 fold.

And the IC50 (ng/mL) of killing of MM.1S cells with 0 ng/mL sBCMA [2]?
Its IC50 (ng/mL) of killing of MM.1S cells with 0 ng/mL sBCMA is 29.3 ng/mL.

What about the IC50 (ng/mL) of killing of MM.1S cells with 75 ng/mL sBCMA [2] of the same binder?
The IC50 (ng/mL) of killing of MM.1S cells with 75 ng/mL sBCMA was 55.5 ng/mL.

What about the IC50 (ng/mL) of killing of MM.1S cells with 270 ng/mL sBCMA [2] of the same binder?
The IC50 (ng/mL) of killing of MM.1S cells with 270 ng/mL sBCMA was 160 ng/mL.

What about the IC50 (ng/mL) of killing of MM.1S cells with 720 ng/mL sBCMA [2] of the same binder?
Its IC50 (ng/mL) of killing of MM.1S cells with 720 ng/mL sBCMA is 1460 ng/mL.

B4: 15B2GL-SG3249 antibody-drug conjugate (antibody, V domains shown)
VH: EVQLVESGGGLVKPGGSLRLSCAASGFTFRSYSMNWVRQAPGKGLEWVSSISGSSNYIYYADSVKGRFTISRDNAKNSLYLQMNSLRAEDTAVYYCARGGNYYVEYFQYWGQGTLVTVSS
VL: EIVLTQSPGTLSLSPGERATLSCRASQYISSNYLAWYQQKPGQAPRLLIYGASNRATGIPDRFSGSGSGTDFTLTISRLEPEDFAVYYCQQYGSSPITFGQGTKLEIK
modifications: PBD payload SG3249 conjugated site-specifically; residue not stated; DAR 1.82
What does the source list for B4?
Fold loss of potency, killing of MM.1S cells with 0 ng/mL sBCMA (reference) [6]: 1 fold; Fold loss of potency, killing of MM.1S cells with 75 ng/mL sBCMA [6]: 1.11 fold; Fold loss of potency, killing of MM.1S cells with 270 ng/mL sBCMA [6]: 1.58 fold; Fold loss of potency, killing of MM.1S cells with 720 ng/mL sBCMA [6]: 2.01 fold; IC50 (ng/mL) of killing of MM.1S cells with 0 ng/mL sBCMA [7]: 14.5 ng/mL; IC50 (ng/mL) of killing of MM.1S cells with 75 ng/mL sBCMA [7]: 16.1 ng/mL; IC50 (ng/mL) of killing of MM.1S cells with 270 ng/mL sBCMA [7]: 22.9 ng/mL; IC50 (ng/mL) of killing of MM.1S cells with 720 ng/mL sBCMA [7]: 29.1 ng/mL; IC50 (ng/mL), in vitro cytotoxicity (CellTiter-Glo, 96 h), EJM cells [8]: 153 ng/mL; IC50 (ng/mL), in vitro cytotoxicity (CellTiter-Glo, 96 h), JJN-3 cells [8]: 36.3 ng/mL; IC50 (ng/mL), in vitro cytotoxicity (CellTiter-Glo, 96 h), L-363 cells [8]: 31.4 ng/mL; IC50 (ng/mL), in vitro cytotoxicity (CellTiter-Glo, 96 h), MM.1R cells [8]: 8.64 ng/mL; IC50 (ng/mL), in vitro cytotoxicity (CellTiter-Glo, 96 h), MM.1S cells [8]: 26.8 ng/mL; IC50 (ng/mL), in vitro cytotoxicity (CellTiter-Glo, 96 h), NCI-H929 cells [8]: 5.99 ng/mL; IC50 (ng/mL), in vitro cytotoxicity (CellTiter-Glo, 96 h), OPM-2 cells [8]: 201 ng/mL; IC50 (ng/mL), in vitro cytotoxicity (CellTiter-Glo, 96 h), U266B1 cells [8]: 39.7 ng/mL

B5: I09-SG3249 antibody-drug conjugate (antibody, V domains shown)
VH: EVQLVESGGGLVKPGGSLRLSCAASGFTFSSYSMNWVRQAPGKGLEWVSSISGSSNYIYYADSVKGRFTISRDNAKNSLYLQMNSLRAEDTAVYYCARGGNYFVEYFQQWGQGTLVTVSS
VL: EIVLTQSPGTLSLSPGERATLSCRASQYISSNYLAWYQQKPGQAPRLLIYGASNRATGIPDRFSGSGSGTDFTLTISRLEPEDFAVYYCQQYSSDPITFGQGTKLEIK
modifications: PBD payload SG3249 conjugated site-specifically; residue not stated; DAR 1.82
B5 was tested. Which “Fold loss of potency, killing of MM.1S cells with 0 ng/mL sBCMA (reference)” value [6] did it give?
Its value is 1 fold.

And the “Fold loss of potency, killing of MM.1S cells with 75 ng/mL sBCMA” value [6]?
Its value is 1.35 fold.

And the “Fold loss of potency, killing of MM.1S cells with 270 ng/mL sBCMA” value [6]?
The value was 1.98 fold.

What about the “Fold loss of potency, killing of MM.1S cells with 720 ng/mL sBCMA” value [6] of the same binder?
Its value is 5.75 fold.

What about the “IC50 (ng/mL) of killing of MM.1S cells with 0 ng/mL sBCMA” value [7] of the same binder?
Its value is 2.81 ng/mL.

What about the “IC50 (ng/mL) of killing of MM.1S cells with 75 ng/mL sBCMA” value [7] of the same binder?
The value was 3.79 ng/mL.

And the “IC50 (ng/mL) of killing of MM.1S cells with 270 ng/mL sBCMA” value [7]?
Its value is 5.55 ng/mL.

What about the “IC50 (ng/mL) of killing of MM.1S cells with 720 ng/mL sBCMA” value [7] of the same binder?
The value was 16.2 ng/mL.
